For 31 molecules, optical density results are on record in patent publication US20210380703A1 (RIGEL PHARMACEUTICALS, published 2021).

Positions count from the first letter of the chain named.

B1: 367_G05 (antibody, V domains shown)
VH: EVQLLESGGGLVQPGGSLRLSCAASGFTFSDYGMNWVRQAPGKGLEWVANINYNGGYTSYADSVKGRFTISRDNSKNTLYLQMNSLRAEDTAVYYCARSANWHDTALDYWGQGTLVTVSS
VL: DIQMTQSPSSLSASVGDRVTITCRASQSIVSYLNWYQQKPGKAPKLVIYAATSLASGVPSRFSGSGSGTDFTLTISSLQPEDFATYYCQQSYDTPLTFGGGTKVEIK
B2: 367_H11 (antibody, V domains shown)
VH: B1 VH with D31S, N50G, T58K, S59G
VL: B1 VL with V30I, L33V, L54R, D93N, T94S
B3: 368_E02 (antibody, V domains shown)
VH: B1 VH with S30D, D31S, G33S, N50G, G55S, A106H
VL: B1 VL with V30L, S31T, V47L, L54R, D93S, T94S
B4: 368_F03 (antibody, V domains shown)
VH: B1 VH with S30D, D31S, G33S, N50G, G55S, S59G, R98K
VL: B1 VL with V30I, L54R, A55H, T94S
B5: 368_B01 (antibody, V domains shown)
VH: B1 VH with D31S, A49S, N50G, G55S, T58K
VL: B1 VL with V30S, V47L, L54R, D93E
B6: 368_B07 (antibody, V domains shown)
VH: B1 VH with G33S, A49S, T58K
VL: B1 VL with V47L, D93S, T94S
B7: 368_G12 (antibody, V domains shown)
VH: B1 VH with D31S, N50S, G55S, S59G
VL: B1 VL with V30S, L33V, A51V, L54R, D93E
B8: 367_G10 (antibody, V domains shown)
VH: B1 VH with S30D, A49S, N50G
VL: B1 VL with V30I, L33V, V47L, L54R, T94S
B9: 367_H06 (antibody, V domains shown)
VH: B1 VH with D31S, A49S, S59G, A106H
VL: B1 VL with V30I, S31T, V47L, L54R
B10: 369_C02 (antibody, V domains shown)
VH: B1 VH with S30D, D31S, G33S, A49S, T58K
VL: B1 VL with V30L, S31T, L54R, D93E, T94L
B11: 368_E06 (antibody, V domains shown)
VH: B1 VH with N35H, A49S, N50G, S59G
VL: B1 VL with V30L, A50G, L54R, T94S
B12: 368_D01 (antibody, V domains shown)
VH: B1 VH with D31S, N35H
VL: B1 VL with V30L, L54R, Y92D, D93S
B13: 369_C03 (antibody, V domains shown)
VH: B1 VH with D31S, A49S, T58K
VL: B1 VL with V30L, S31T, L54R, T94S
B14: 368_C05 (antibody, V domains shown)
VH: B1 VH with S30D, D31S, A49S, N50G, G55S
VL: B1 VL with V30L, L54R, Y92D, D93S, T94N
B15: 368_A07 (antibody, V domains shown)
VH: B1 VH with D31S, G33S, N50G, G55S, A106H
VL: B1 VL with V30L, S31T, A51T, L54R, Y92N, D93E, T94L
B16: 368_A01 (antibody, V domains shown)
VH: B1 VH with D31S, A49S
VL: B1 VL with V30I, V47L, L54R, A55H, T94N
B17: 368_B06 (antibody, V domains shown)
VH: B1 VH with S30D, D31S, N35H, A49S, N50G, G55S
VL: not shown
B18: 368_H04 (antibody, V domains shown)
VH: B1 VH with D31S, G33S, N50G, G55S, T58K, S59G, R98K, A106H
VL: B1 VL with L33V, V47L, L54R, T94S
B19: 368_D04 (antibody, V domains shown)
VH: B1 VH with D31S, A49S, N50G, T58K
VL: B1 VL with V30S, S31T, L33V, A51V, L54R, A55H, T94S
B20: 368_D11 (antibody, V domains shown)
VH: B1 VH with S30D, A49S, T58K
VL: B1 VL with V30L, S31T, L54R, T94L
B21: 368_A05 (antibody, V domains shown)
VH: B1 VH with D31S, G33S, N50G, G55S, S59G
VL: B1 VL with L54R, T94S
B22: 367_G06 (antibody, V domains shown)
VH: B1 VH with D31S, A49S, N50G, G55S, T58K, A106H
VL: B1 VL with V30L, S31T, L33V, V47L, A51T, A55H
B23: 369_B01 (antibody, V domains shown)
VH: B1 VH with D31S, G33S, A49S, N50G
VL: B1 VL with V30L, V47L, A51V, L54R, D93E, T94N
B24: 368_E04 (antibody, V domains shown)
VH: B1 VH with D31S, G33S, G55S, S59G
VL: B1 VL with V30L, L33V, V47L, L54R, A55H, T94N
B25: 368_G01 (antibody, V domains shown)
VH: B1 VH with N35H, N50S, G55S
VL: B1 VL with V30L, S31T, L54R, D93N, T94L
B26: 368_E01 (antibody, V domains shown)
VH: B1 VH with D31S, G33S, N50S, G55S, S59G, A106H
VL: B1 VL with V30L, V47L, A51V, L54R, A55H, D93S, T94L
B27: 368_E07 (antibody, V domains shown)
VH: B1 VH with D31S, N50G, R98K
VL: B1 VL with V30L, V47L, A51V, L54R, D93E, T94N
B28: 368_D05 (antibody, V domains shown)
VH: B1 VH with D31S, G33S, A49S, N50G
VL: B1 VL with V30L, S31T, L54R, Y92D, T94S
B29: 369_A02 (antibody, V domains shown)
VH: B1 VH with D31S, G33S, N50G, G55S, S59G, A106H
VL: B1 VL with V30L, L33V, V47L, L54R, T94L
B30: 368_F11 (antibody, V domains shown)
VH: B1 VH with A49S, N50G, A106H
VL: B1 VL with L33V, L54R, D93N, T94N
B31: 368_A09 (antibody, V domains shown)
VH: B1 VH with S30D, D31S, G33S, A49S, N50G, A106H
VL: B1 VL with V30L, L33V, V47L, A51V, L54R, T94S
Further: test concentration or dose not given here.

Mouse ACVR2A, sequence (P27038 20-135 limits assumed): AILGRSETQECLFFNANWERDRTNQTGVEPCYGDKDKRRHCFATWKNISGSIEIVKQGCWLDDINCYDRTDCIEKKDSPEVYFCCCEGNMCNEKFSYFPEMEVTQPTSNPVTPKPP
T1 sequence (P27037 20-135 limits assumed): as the sequence (P27038 20-135 limits assumed) above, with R20K, I73V counted along it

One assay addresses T1, Human ACVR2A (human, UniProt P27037 20-135, limits assumed).
T1 construct: also called activin receptor, type II A
Briefly: ELISA. In outline: (§1)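 ELISA measured binding of ACVR2A-specific monoclonal antibodies to human and mouse ACVR2A. Biotinylated goat anti-human kappa light chain served as positive control and human Fc as negative control.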
With B1, the optical density was found to be 2.41 OD.

In turn, B2 gave an optical density of 2.37 OD.

The molecule B3 displayed an optical density of 2.5 OD.

Take B4: the optical density was found to be 2.35 OD.

For B5, the optical density was 2.61 OD.

For B6, the optical density was determined as 1.91 OD.

The molecule B7 displayed an optical density of 2.46 OD.

B8 gave an optical density of 2.12 OD.

The molecule B9 had an optical density of 2.69 OD.

In turn, B10 came in with an optical density of 3.6 OD.

B11: the optical density amounted to 2.33 OD.

B12: the optical density was determined as 2.75 OD.

B13 had an optical density of 3.37 OD.

For the molecule B14, the optical density worked out at 1.82 OD.

The molecule B15 registered an optical density of 2.11 OD.

Molecule B16 yielded an optical density of 2.99 OD.

The molecule B17 registered an optical density of 2.06 OD.

In turn, B18 registered an optical density of 1.06 OD.

In turn, B19 showed an optical density of 2.46 OD.

B20: the optical density turned out to be 2.8 OD.

B21 yielded an optical density of 2.71 OD.

In turn, B22 came in with an optical density of 2.64 OD.

The molecule B23 gave an optical density of 3.36 OD.

As to B24, the optical density came out at 3.08 OD.

Take B25: the optical density was found to be 2.65 OD.

Regarding B26, the optical density came out at 2.57 OD.

With B27, the optical density was found to be 1.07 OD.

In turn, B28 had an optical density of 2.86 OD.

For the molecule B29, the optical density turned out to be 3.15 OD.

With B30, the optical density came out at 2.58 OD.

B31 returned an optical density of 2.51 OD.

Another assay deals with Mouse ACVR2A (mouse, UniProt P27038 20-135, limits assumed). As to the kind of experiment: ELISA. Summed up:
as §1
The molecule B1 showed an optical density of 2.71 OD.

Turning to B2, the optical density was 2.69 OD.

In the case of B3, the optical density stood at 2.79 OD.

Molecule B4 registered an optical density of 2.6 OD.

Take B5: the optical density worked out at 2.59 OD.

Molecule B6 yielded an optical density of 2.06 OD.

Take B7: the optical density came out at 2.54 OD.

For B8, the optical density was determined as 2.32 OD.

The molecule B9 registered an optical density of 3.08 OD.

With B10, the optical density is 3.52 OD.

On to B11, for which the optical density came to 2.34 OD.

B12 gave an optical density of 2.97 OD.

As for B13, the optical density was found to be 3.65 OD.

In turn, B14 had an optical density of 2.02 OD.

In the case of B15, the optical density stood at 2.31 OD.

The molecule B16 came in with an optical density of 2.9 OD.

In the case of B17, the optical density came to 2.34 OD.

Consider B18, for which the optical density came out at 1.36 OD.

For B19, the optical density is 2.7 OD.

Molecule B20 came in with an optical density of 2.96 OD.

In turn, B21 returned an optical density of 2.7 OD.

B22 displayed an optical density of 2.81 OD.

For B23, the optical density came out at 3.46 OD.

Consider B24, for which the optical density came to 3.23 OD.

Consider B25, for which the optical density is 2.82 OD.

Take B26: the optical density turned out to be 2.85 OD.

B27 had an optical density of 1.17 OD.

The molecule B28 yielded an optical density of 2.87 OD.

B29 gave an optical density of 3.46 OD.

As to B30, the optical density is 2.73 OD.

Molecule B31 returned an optical density of 2.63 OD.

The next assay has as its target T2, Goat anti-Human Kappa.
T2 construct: Positive control of the ELISA; also called biotinylated goat anti-human kappa light chain
Briefly: ELISA, positive control. Summed up: as §1
On the technique in general: An ELISA detects its analyte on a solid surface through an enzyme-linked reagent.
The molecule B1 returned an optical density of 3.37 OD.

Consider B2, for which the optical density came to 3.61 OD.

On to B3, for which the optical density was determined as 3.68 OD.

As for B4, the optical density was 3.6 OD.

The molecule B5 yielded an optical density of 3.71 OD.

As to B6, the optical density was 3.13 OD.

Molecule B7 returned an optical density of 3.52 OD.

Take B8: the optical density worked out at 3.45 OD.

The molecule B9 had an optical density of 3.65 OD.

On to B10, for which the optical density was determined as 3.54 OD.

In turn, B11 came in with an optical density of 3.5 OD.

Regarding B12, the optical density stood at 3.65 OD.

In turn, B13 came in with an optical density of 3.52 OD.

The molecule B14 displayed an optical density of 3.36 OD.

With B15, the optical density was found to be 3.65 OD.

B16 had an optical density of 3.68 OD.

Turning to B17, the optical density came to 3.16 OD.

Consider B18, for which the optical density was 3.51 OD.

As for B19, the optical density was 3.67 OD.

As for B20, the optical density was 3.49 OD.

As to B21, the optical density was determined as 3.46 OD.

The molecule B22 yielded an optical density of 3.35 OD.

In the case of B23, the optical density came out at 3.59 OD.

For the molecule B24, the optical density is 3.48 OD.

B25 showed an optical density of 3.62 OD.

B26: the optical density turned out to be 3.74 OD.

B27 displayed an optical density of 3.45 OD.

On to B28, for which the optical density was found to be 3.38 OD.

B29 returned an optical density of 3.49 OD.

As to B30, the optical density was determined as 3.53 OD.

Regarding B31, the optical density came out at 3.55 OD.
